Where a chain is given by its changes, count along the chain named.
B1: mAb 5.28.1: fully human anti-Angiopoietin-2 monoclonal antibody, variable regions SEQ ID NO: 17-20 (antibody, listed as Homo sapiens, listed as Homo Sapiens, V domains shown)
VH: EVQLVESGGIVVQPGGSLRLSCAASGFTFDDYTMHWVRQTPGKGLEWVSLISWDGGSTYYADSVKGRFTISRDNSKNSLYLQMNSLRTEDTALYYCAKDIDIAVAGTGFDHWGQGTLVTVSSA
VL: EIVMTQSPATLSVSPGERATLSCRASQSVTSNLAWYQQKPGQAPRLLIYGALIRATGIPARFSGSGSGTEFTLTISSLQSEDFAVYYCQQYNNWPFTFGPGTKVDIKR
B2: mAb 3.3.2: fully human anti-Angiopoietin-2 monoclonal antibody, variable regions SEQ ID NO: 1-4 (antibody, listed as Homo Sapiens, V domains shown)
VH: EVQLVESGGGLVQPGGSLRLSCAVSGFTFSSYWMSWVRQAPGKGLEWVANIKQDGSEKYYVDSVKGRFTISRDNAKNSLYLQMNSLRAEDTAVYYCARDQGIAVAGPFDYWGQGTLVTVSSA
VL: EIVMTQSPATLSVSPGERATLSCRASQTVSSDLAWYQQKPGQAPRLLIYGASIRATGIPARFSGSGSGTEFTLTISSLQSEDFAVYSCQQYYNWWTFGQGTKVEIKR
B3: mAb 5.88.3: fully human anti-Angiopoietin-2 monoclonal antibody, variable regions SEQ ID NO: 29-32 (antibody, listed as Homo Sapiens, V domains shown)
VH: EVQMVESGGGLVQPGGSLRLSCAASGFTLRSYWMSWVRQAPGKGLEWVANIKEDGSEKYHVDSVKGRFTISRDNAENSLFLQMSSLRAEDTAVYYCARDMEASAGLFDYWGQGTLVTVSSA
VL: B2 VL with T20I, T28S, V29I, D32N, I53T, S87Y, Y92N, N93Y
B4: mAb 5.16.3: fully human anti-Angiopoietin-2 monoclonal antibody, variable regions SEQ ID NO: 13-16 (antibody, listed as Homo sapiens, listed as Homo Sapiens, V domains shown)
VH: QVQLVQSGAEVKKPGASVKVSCKASGYTFTGFYMYWVRQAPGQGLEWMGWINPNSSGTNHAQKFQGRVTMTRDTSISTAYMELSRLRSDDTAVYYCARDQDIATAGPFDYWGQGTLVTVSS
VL: B2 VL with T28S, D32N, Y49F, I53T, S87Y, Y92N, Q99R
B5: mAb 3.31.2: fully human anti-Angiopoietin-2 monoclonal antibody, variable regions SEQ ID NO: 9-12 (antibody, listed as Homo sapiens, V domains shown)
VH: EVQLVESGGGLVQPGGSLRLSCAASGFTFSSYWMSWVRQAPGKGLEWVANIKQDGSDKYYVDSVKGRFTISRDNAKNSLYLRMNSLRAEDTAVFYCARDMGSGWFDYWGQGTLVTVSSA
VL: B2 VL with I2V, T28S, S30G, D32N, I53T, S87C, Y92N, N93H
B6: Tie-2/Fc: soluble recombinant human Tie-2/Fc fusion protein (R&D Systems), positive control (protein)
chain: AMDLILINSLPLVSDAETSLTCIASGWRPHEPITIGRDFEALMNQHQDPLEVTQDVTREWAKKVVWKREKASKINGAYFCEGRVRGEAIRIRTMKMRQQASFLPATLTMTVDKGDNVNISFKKVLIKEEDAVIYKNGSFIHSVPRHEVPDILEVHLPHAQPQDAGVYSARYIGGNLFTSAFTRLIVRRCEAQKWGPECNHLCTACMNNGVCHEDTGECICPPGFMGRTCEKACELHTFGRTCKERCSGQEGCKSYVFCLPDPYGCSCATGWKGLQCNEACHPGFYGPDCKLRCSCNNGEMCDRFQGCLCSPGWQGLQCEREGIQRMTPKIVDLPDHIEVNSGKFNPICKASGWPLPTNEEMTLVKPDGTVLHPKDFNHTDHFSVAIFTIHRILPPDSGVWVCSVNTVAGMVEKPFNISVKVLPKPLNAPNVIDTGHNFAVINISSEPYFGDGPIKSKKLLYKPVNHYEAWQHIQVTNEIVTLNYLEPRTEYELCVQLVRRGEGGEGHPGPVRRFTTASIGLPPPRGLNLLPKSQTTLNLTWQPIFPSSEDDFYVEVERRSVQKSDQQNIKVPGNLTSVLLNNLHPREQYVVRARVNTKAQGEWSEDLTAWTLSDILPPQPENIKISNITHSSAVISWTILDGYSISSITIRYKVQGKNEDQHVDVKIKNATITQYQLKGLEPETAYQVDIFAENNIGSSNPAFSHELVTLPESQAPADLGGGK
modifications: left off: a dimerising Fc or GST
notes: soluble recombinant human Tie-2/Fc fusion protein (R&D Systems), positive control
B7: mAb 5.86.1: fully human anti-Angiopoietin-2 monoclonal antibody, variable regions SEQ ID NO: 25-28 (antibody, listed as Homo Sapiens, listed as Homo sapiens, V domains shown)
VH: QVQLVQSGAEVKKPGASVKVSCKASGYTFTGYHMYWVRQAPGQGLEWLGWINPNSGGTNYAQKFQGRVTMTRDTSISTAYMELSRLRSDDTAVYYCVRDQGIAAAGPFDYWCQGTLVTVSSA
VL: DIRMTQSPSSLSASVGDRVTITCRASQRISTYLNWYQQKPGKAPKFLIYAASSLQSGVPSRFSGSGSGTDFTLTISSLQPEDFATYYCQQSYTTPFTFGPGTKVDIKR

Target: T1, Angiopoietin-2 binding to Tie-2 (Homo sapiens, UniProt O15123)
T1 construct: purchased R&D Systems, Inc. BT623 (Angiopoietin-2, biotinylated); 313-TI-100 (Tie-2/Fc)
T1 sequence (O15123 19-496): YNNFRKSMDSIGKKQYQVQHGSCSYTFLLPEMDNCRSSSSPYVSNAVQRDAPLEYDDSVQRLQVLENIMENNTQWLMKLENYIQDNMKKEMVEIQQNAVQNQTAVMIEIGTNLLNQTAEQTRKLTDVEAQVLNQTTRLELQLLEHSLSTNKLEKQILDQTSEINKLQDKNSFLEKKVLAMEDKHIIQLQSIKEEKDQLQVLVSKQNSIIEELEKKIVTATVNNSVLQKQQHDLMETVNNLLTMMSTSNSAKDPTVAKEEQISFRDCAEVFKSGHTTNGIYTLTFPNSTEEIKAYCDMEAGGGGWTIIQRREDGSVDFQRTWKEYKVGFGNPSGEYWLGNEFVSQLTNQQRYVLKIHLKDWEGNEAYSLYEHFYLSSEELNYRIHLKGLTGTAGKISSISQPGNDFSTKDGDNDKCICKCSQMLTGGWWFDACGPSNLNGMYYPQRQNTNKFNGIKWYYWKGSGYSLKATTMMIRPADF
Test: Competitive binding assay (modified ELISA): inhibition of Angiopoietin-2 binding to Tie-2
Conditions: for EC50: potency, competitive binding of Angiopoietin-2 to Tie-2, purified mAb; for Efficacy*: ratio of bound Angiopoietin-2 with mAb (30 μg/ml) versus without mAb
Procedure: As discussed above, Angiopoietin-2 exerts its biological effect by binding to the Tie-2 receptor. Monoclonal antibodies that inhibited Angiopoietin-2/Tie-2 binding were identified by a competitive binding assay using a modified ELISA. The mAb used were products of micro-purification from 50 ml of exhaustive supernatants of the hybridoma pools that were specific for Angiopoietin-2 (see above). 96-well Nunc Immplates™ were coated with 100 μl of recombinant human Tie-2/Fc fusion protein (R&D Systems, Inc., Cat. No. 313-TI-100) at 4 μg/ml by incubating overnight at 4° C. The plates were washed four times using Phosphate Buffer Saline (PBS) with a Skan™ Washer 300 station (SKATRON). The wells were blocked by 100 μl of ABX-blocking buffer (0.5% BSA, 0.1% Tween, 0.01% Thimerosal in PBS) for 1 hour.
Biotinylated recombinant human Angiopoietin-2 (R&D Systems, Inc. Cat. No. […] The plates were incubated at room temperature for two hours before the unbound molecules were washed off. Bound biotinylated Angiopoietin-2 was then detected using 100 μl/well of Streptavidin-HRP conjugate at 1:200 by incubating at room temperature for half an hour. After washing twice, the bound Streptavidin was detected by HRP substrate (R&D Systems, Cat. No. DY998). The plates were incubated for 30 minutes before 450 stop solution (100 μl/well, BioFX, Cat# BSTP-0100-01) was added to terminate the reaction. The light absorbance at 450 nm was determined by a Spectramax Plus reader.
Soluble recombinant Tie-2/Fc fusion protein at 10-fold molar excess to Angiopoietin-2 was used as a positive control. At this concentration, Tie-2/Fc inhibited binding of Angiopoietin-2 to immobilized Tie-2 by 80%.
To quantitate the inhibitory activities of the mAb on Angiopoietin-2 binding to Tie-2, the titer was determined for purified mAbs from the top candidates using a competitive binding assay. Each concentration of the mAb was tested in duplicate. The concentration-response relationship was found by curve fitting using Graphpad Prism™ graphic software (non-linear, Sigmoid curve). The maximal inhibition (efficacy) and IC50 (potency) were calculated by the software.

Row | Molecule | EC50 | Efficacy* | inhibition of binding of Angiopoietin-2 to immobilized Tie-2 (positive control at 10-fold molar excess to Angiopoietin-2)
1 | B1 | 2.698 µg/mL | 0.3892 | –
2 | B2 | 0.1684 µg/mL | 0.3881 | –
3 | B3 | 0.1557 µg/mL | 0.4032 | –
4 | B4 | 0.08532 µg/mL | 0.3279 | –
5 | B5 | 0.04169 µg/mL | 0.3751 | –
6 | B6 | – | – | 80%
7 | B7 | 0.1331 µg/mL | 0.3844 | –

Source: patent US20090123474A1, “COMBINATION OF ANGIOPOIETIN-2 ANTAGONIST AND OF VEGF-A, KDR AND/OR FLTL ANTAGONIST FOR TREATING CANCER” (ASTRAZENECA AB, priority 2005, published 2009)
